This is an account of results in publication doi:10.1101/2022.05.13.491786.

Experiment [1] concerns the target inactive human 80S ribosome (human (endogenous in MCF7)) (UniProt P18124). As to the kind of experiment: cryo-EM structure.
Experiment [2] addresses large 60S ribosomal subunit (human (endogenous in MCF7)) (UniProt P30050). In words: cryo-EM structure.
For experiment [3] the target is unchanged. In words: co-sedimentation.

“LYAR (from UniProt Q9NX58 1-379) (natural protein)”: in experiment [1], the percent of 80S ribosomes with LYAR (arsenite-treated cells) amounted to 15.5% and the percent of 80S ribosomes with LYAR (untreated cells) was determined as 13.2%.

For the substance “eIF6 (from UniProt P56537 1-245) (natural protein)”, in experiment [2], the percent of 60S subunits with eIF6 (untreated cells) amounted to 30%. In experiment [3], this substance displayed a stoichiometry N (eIF6 : large subunit proteins) of 1.

Take “IFRD2 (from UniProt Q12894 1-442) (natural protein)”: in experiment [1], the percent of 80S ribosomes with IFRD2 (arsenite-treated cells) is 13% and the percent of 80S ribosomes with IFRD2 (untreated cells) came out at 16.9%.
